Results taken from patent US7070943B2 (priority 1998, dated 2006).

Legend:
Assay type in all cases: cell-based, Human
underphosphorylated pRB = assay: pRB phosphorylation in U937 cells, anti-pRB^P− mAb flow cytometry; details: U937, 170 nM
Excerpt: (§1) Also shown are cells from the culture at higher cell density (>10^6 cells/ml) where proliferation declined because of cell crowding (d). The cells reacting with anti-pRB^P− were in G0/1 phase (open arrows). The dashed line indicates the upper level of background fluorescence, i.e. of the cells pretreated with alkaline phosphatase. The percentage of cells reacting with anti-pRB^P− mAb was increased in the ONCONASE®-treated and crowded cultures compared to the control. No significant changes in expression of pRB detected by the antibody that reacts with this protein regardless of its phosphorylation status (anti-pRB^T) were observed between ONCONASE®-treated and control cells (not shown).
(§2) The status of phosphorylation of pRB in individual cells was monitored using a combination of anti-pRB antibodies, one specifically detecting underphosphorylated pRB (anti-pRb^P− mAb) and another which reacts with total pRB, regardless of its phosphorylation (anti-pRB^T mAb). […] The cells were then rinsed with PBS containing 1% BSA and their pRB associated green (anti-pRB^P−) and red (anti-PRB^T) fluorescence was measured by flow cytometry.
(§3) Cellular fluorescence was measured with the ELITE ESP flow cytometer/cell sorter (Coulter, Miami, Fla., USA) using either argon ion laser (emission at 488 nm) alone or combined with helium-cadmium laser (emitting UV light). […]

total pRB = assay: Total pRB in U937 cells, anti-pRB^T mAb flow cytometry
Excerpt: as §1, §2, §3

p27^KIP1 = p27^KIP1 expression by flow cytometry in U937 cells; details: U937, 170 nM, 72 hours
Procedure: (§4) Following incubations in the absence or presence of ONCONASE®, the cells were washed with phosphate-buffered saline (PBS) and fixed in suspension in either ice-cold 80% ethanol or absolute methanol for up to 24 h. After fixation, the cells were washed twice with PBS and then suspended in 1 ml of 0.25% Triton X-100 (Sigma, St. Louis, Mo., USA) in PBS on ice for 5 min. The cells were then centrifuged (300 g, 5 min), the cell pellet suspended 100 μl PBS containing 0.5 μg of the anti-cyclin (or anti-CKI) mAb and 1% bovine serum albumin (BSA; Sigma), and incubated for 2 h at room temperature. […]
(§5) Cellular fluorescence was measured with the ELITE ESP flow cytometer/cell sorter (Coulter, Miami, Fla., USA) using either argon ion laser (emission at 488 nm) alone or combined with helium-cadmium laser (emitting UV light). In the first case, fluorescence signals were collected using the standard configuration of the flow cytometer (green fluorescence, representing directly or indirectly FITC-labeled antibodies; red fluorescence representing CYCHROME® tagged anti-pRB^T mAb). In the second case, DNA content was analyzed based on DAPI fluorescence (blue emission) excited by UV light, while the anti-pRB^P− mAb (FITC) and anti-pRB^T (Cy-Chrome®) related emission was excited with blue light laser.

cyclin E = assay: Cyclin E expression by multiparameter flow cytometry in U937 cells; details: U937 cells growing in presence of drug
Procedure: as §4, §5

p16^INK4a = p16^INK4a expression by flow cytometry in U937 cells; details: U937, 170 nM, 72 hours
Procedure: Proportions of cells in different phases of the cycle were the same as in FIG. 12;
as §4, §5

U937 cells = assay: Cell cycle distribution and apoptotic (sub-G1) cells by DNA content flow cytometry; details: U937, 170 nM
Procedure: FIG. 11 presents growth and viability curves (a) as well as cell cycle distribution (b) of U937 cells maintained in the absence (CTRL) and presence of 170 nM (2.0 μg/ml) ONCONASE® (ONC) for up to 72 h. The percentage of dead cells was estimated based on the trypan blue exclusion test. The percentage of cells in the respective phases was estimated flow cytometrically based on their DNA content. Apoptotic cells (Ap) were recognized as the cells with fractional DNA content (sub-G1), as previously described;
Anti-cyclin D3 mAb immunofluorescence in combination with DNA content was measured by multiparameter flow cytometry (a). The cells were growing either in the absence (Exp, exponential growth) or in the presence of 170 nM ONCONASE® for 48 hours (Onc). There were 48%, 38% and 14% of cells in G1, S, and G2/M in Exp culture compared with 64%, 24% and 13% cells in G1, S, and G2/M, respectively, in Onc culture. The scattergrams represent bivariate distributions of the cells with respect to their cyclin D3 vs. DNA content associated fluorescence intensities. The upper level of the isotype-matched control (mean fluorescence+3 standard deviations) is marked in the Exp panel with a dashed line. The bar plots represent the mean FITC (anti-cyclin D3 mAb) fluorescence values (arbitrary units) of the cells in different phases of the cycle (gated based on differences in DNA content as shown in the Exp panel), after subtraction of the background fluorescence, i.e., mean fluorescence of the same cells but stained with isotype-matched control IgG antibody. Western blots (b) show expression of cyclin D3 in control culture and in the culture treated with Onconase 48 h;
as §4, with “temperature. Anti-cyclin D3 (clone G107-565); anti-cyclin E (clone HE12); anti-p16^INK4a (clone G175-405); and […] (clone SX118) and anti-p27^KIP1 (clone G173-524) mAbs, all were obtained from PharMingen (San Diego, Calif., USA). After incubation with the respective mAbs the cells were rinsed with PBS containing 1% BSA and incubated with the FITC-conjugated goat anti-mouse IgG antibody (Molecular Probes) diluted 1:30 in PBS containing 1% BSA for 30 min at room temperature in the dark.” for “temperature.”
as §5, with “laser. […]” for “laser.”

B1: ONCONASE®: basic protein of 12,000 MW isolated from oocytes or early embryos of Rana pipiens, homologous to pancreatic RNase A (protein, UniProt P22069 1-104, looked up)
Protein P-30: QDWLTFQKKHITNTRDVDCDNIMSTNLFHCKDKNTFIYSRPEPVKAICKGIIASKNVLTTSEFYLSDCNVTSRPCKYKLKKSTNKFCVTCENQAPVHFVGVGSC
proportion of cells stainable with anti-pRB^P− (underphosphorylated pRB; 48 h (control 2.4%)): 40.5% | proportion of cells stainable with anti-pRB^P− (underphosphorylated pRB; 72 h (control 2.4%)): 43.3% | effect on total pRB (anti-pRB^T) (total pRB): no effect | increase in p27^KIP1 (p27^KIP1): Over four-fold | expression of cyclin E (cyclin E): not significantly changed | increase in level of p16^INK4a (p16^INK4a): over six-fold | cells in G2/M (U937 cells; 48 hours (Exp culture 14%)): 13% | cells in S (U937 cells; 48 hours (Exp culture 38%)): 24% | cells in G1 (U937 cells; 48 hours (Exp culture 48%)): 64% | proportion of cells in G0/1 phase (U937 cells; after 72 h (from 47% in control)): ~70% | percentage of apoptotic cells (sub-G1) (U937 cells; up to 72 h (from 2%)): 6%
